Sequences and labels used below:
B1: TPR 5TU (parent)
chain: GGAUCUUCUCGAUCUAACAAAAAAGACAAAUCUGCCACAAAGCUUGAGAGCAUCUUCGGAUGCAGAGGCGGCAGCCUUCGGUGGCGCGAUAGCGCCAACGUUCUCAACUAUGACACGCAAAACGCGUGCUCCGUUGAAUGGAGUUUAUCAUG

Consider 83 variants from the RNAGym collection of RNA variant scans (doi:10.1073/pnas.2313332121).

Variants at the floor of the assay were thinned out. Some results are limits rather than exact numbers.

Variants of B1 are the subject of the series. As to the kind of experiment: polymerase ribozyme fitness, log enrichment relative to wild type (log ratio); higher = more active; in vitro selection for triplet polymerase activity. The gist of the method:
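Fitness is a logarithmic measure of how a genotype enriched relative to the wild type, with replicate averages weighted by inverse variance. The logarithm uses base 2, and enrichment came from Illumina sequencing of input and output libraries. Those libraries were PCR-built, transcribed mutants of each subunit of a heterodimeric triplet polymerase ribozyme, passed through one triplicate in vitro selection round that included frozen incubation at −7 °C, gel excision of extended constructs and streptavidin-bead capture. Genotypes were kept only if they had ≥10 input reads and ≥1 read per output.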
As to A16G U134G, the “polymerase ribozyme fitness (log ratio)” value is -3.44.
For the variant A17C A26C C87U, the “polymerase ribozyme fitness (log ratio)” value is -1.83.
With A16U C129A, the “polymerase ribozyme fitness (log ratio)” value was -3.81.
For the variant A16U U53A C75A C93A C103G U130A, the “polymerase ribozyme fitness (log ratio)” value is at most -4.2.
For A17C C18A C57A C95U C99G A113G G133A G152U, the “polymerase ribozyme fitness (log ratio)” value was -4.06.
For A16U A19U the value was -2.39; for A17C C32G C54A C76G G80A C93A C96A U111A, at most -4.2.
A16U C27G A30U C35G G83A C103U: the “polymerase ribozyme fitness (log ratio)” value is at most -4.2.
In the case of A17G A89G, the “polymerase ribozyme fitness (log ratio)” value was -0.582.
Turning to A16U G46U G59C C76G G84U C85U U102C A138U, the “polymerase ribozyme fitness (log ratio)” value is at most -4.2.
On to A17C A20C U53G G84A, for which the “polymerase ribozyme fitness (log ratio)” value was -2.28.
Take A16U G83C C99A: the “polymerase ribozyme fitness (log ratio)” value was -3.97.
For the variant A16U G83A A106G A107C C118U C123G C129G A150G, the “polymerase ribozyme fitness (log ratio)” value is at most -4.2.
Turning to A16G G83U A107U A142C, the “polymerase ribozyme fitness (log ratio)” value is at most -4.2.
As to A17G A147U, the “polymerase ribozyme fitness (log ratio)” value is 1.55.
For the variant A16G U78A C93G, the “polymerase ribozyme fitness (log ratio)” value is at most -4.2.
In the case of A16U C63U, the “polymerase ribozyme fitness (log ratio)” value is -1.7.
A16U G92U: the “polymerase ribozyme fitness (log ratio)” value is -2.29.
With A17C C95U A119U A150G, the “polymerase ribozyme fitness (log ratio)” value is -1.7.
On to A17G C75U C95U, for which the “polymerase ribozyme fitness (log ratio)” value came out at 0.0451.
For the variant A16G U55A G74A U82G C85G, the “polymerase ribozyme fitness (log ratio)” value is at most -4.2.
For A16G G94A U104A the value was -0.709.
For A16U A30C A47G G58A U111A, the “polymerase ribozyme fitness (log ratio)” value was at most -4.2.
Turning to A16U C38U A91U C103A, the “polymerase ribozyme fitness (log ratio)” value is at most -4.2.
For the variant A16U A30C U61A C96U G140U, the “polymerase ribozyme fitness (log ratio)” value is at most -4.2.
For A17C A40C G83C U109G the value was -3.6; for A16U A29U U45G U61G C93A, at most -4.2; for A16U A37U C76G U82G A89G A91G G143U, at most -4.2.
A16U G42A U53A C85U C96G A120C: the “polymerase ribozyme fitness (log ratio)” value was at most -4.2.
Consider A16U A98U A122G U146G, for which the “polymerase ribozyme fitness (log ratio)” value is -3.26.
A16U G58A C93A: the “polymerase ribozyme fitness (log ratio)” value was -3.46.
As for A16G G25U A150G, the “polymerase ribozyme fitness (log ratio)” value is -3.86.
Consider A17G A37U A47U C85U, for which the “polymerase ribozyme fitness (log ratio)” value is -1.62.
In the case of A17G C63A C118G A142U, the “polymerase ribozyme fitness (log ratio)” value is -2.32.
On to A17G C99U, for which the “polymerase ribozyme fitness (log ratio)” value is -0.271.
Regarding A17C A29C A66U G67A A91G C96U A115G C116A, the “polymerase ribozyme fitness (log ratio)” value was at most -4.2.
On to A16U A21G A30U G48C, for which the “polymerase ribozyme fitness (log ratio)” value is at most -4.2.
For A17G G42C C43A C85A G143U the value was at most -4.2; for A16G U148C, -2.77; for A16U A52U G74A C87A A119U U148G, at most -4.2.
Take A17C C32U: the “polymerase ribozyme fitness (log ratio)” value was -1.61.
Consider A17G A49C C87G C123G G141A, for which the “polymerase ribozyme fitness (log ratio)” value was at most -4.2.
As to A17G G50C A137G U144G, the “polymerase ribozyme fitness (log ratio)” value is at most -4.2.
On to A16G U33G G81A C87G G100A, for which the “polymerase ribozyme fitness (log ratio)” value was at most -4.2.
For the variant A16U G94C, the “polymerase ribozyme fitness (log ratio)” value was -2.55.
As for A17G C38A U45A C69A C85U A142C C149U U151G, the “polymerase ribozyme fitness (log ratio)” value is at most -4.2.
For A17G G50A U55G A89U C93A the value was at most -4.2; for A17G G48A, -1.03; for A16U A24U C27U A39U U55A C76A, at most -4.2.
On to A16U A19U C103G, for which the “polymerase ribozyme fitness (log ratio)” value was -4.18.
For A17C A19C A73G C96U C123U C125G the value was -3.23; for A17G A39C A107U, at most -4.2.
Regarding A17C G92C, the “polymerase ribozyme fitness (log ratio)” value stood at 0.012.
For A16U A60C U61A A66C, the “polymerase ribozyme fitness (log ratio)” value was at most -4.2.
For the variant A17G C54G, the “polymerase ribozyme fitness (log ratio)” value was -1.5.
In the case of A17C A19U G58A A97G U102G A119G, the “polymerase ribozyme fitness (log ratio)” value is -3.63.
As for A16U G143C, the “polymerase ribozyme fitness (log ratio)” value is -3.63.
For the variant A17C C35U G74A C76A U78G, the “polymerase ribozyme fitness (log ratio)” value is at most -4.2.
On to A17G A20U C57G G84U C93A C96G A119U G141A, for which the “polymerase ribozyme fitness (log ratio)” value was at most -4.2.
As to A16G G48A A122U C149U, the “polymerase ribozyme fitness (log ratio)” value was -3.58.
As for A17G A30G C36A C99A, the “polymerase ribozyme fitness (log ratio)” value was at most -4.2.
With A16U G50A C95G C118G, the “polymerase ribozyme fitness (log ratio)” value is at most -4.2.
As to A17G A21G C96G, the “polymerase ribozyme fitness (log ratio)” value was 0.392.
Take A17C U61G C85U G126A G140U U151A G152C: the “polymerase ribozyme fitness (log ratio)” value is at most -4.2.
As to A17C G25A G62U G117U, the “polymerase ribozyme fitness (log ratio)” value is -2.71.
With A16U A29G A30U U53A U55A G62C U77G C116U, the “polymerase ribozyme fitness (log ratio)” value is at most -4.2.
A16G C54U C76A C93U A97G C103U C123U G128C: the “polymerase ribozyme fitness (log ratio)” value is at most -4.2.
As for A16U A19G C57A, the “polymerase ribozyme fitness (log ratio)” value is -2.39.
For A17C C99A the value was -0.000978.
Consider A16G C87U, for which the “polymerase ribozyme fitness (log ratio)” value was -1.85.
On to A17C G133A, for which the “polymerase ribozyme fitness (log ratio)” value was -3.15.
In the case of A17G A22G U82C C99A, the “polymerase ribozyme fitness (log ratio)” value is -2.88.
For A17G A52G C85G the value was -2.03.
Regarding A16U A17U G48U U104G G124A C131G, the “polymerase ribozyme fitness (log ratio)” value is -4.15.
Consider A16U A29U U77G C85G C116U C125A U134C, for which the “polymerase ribozyme fitness (log ratio)” value was at most -4.2.
For A16U C35U G92U C116G, the “polymerase ribozyme fitness (log ratio)” value is -3.21.
In the case of A17G A49C G59U G92A A113G A119U, the “polymerase ribozyme fitness (log ratio)” value was -4.03.
As for A16U A120G, the “polymerase ribozyme fitness (log ratio)” value is -2.64.
For A16U A120U the value was -2.
For A16G C149G the value was -3.97; for A16G U53G G84U C96G, -3.88.
Take A17G C43A C54U C93G: the “polymerase ribozyme fitness (log ratio)” value was at most -4.2.
For A16U U139G G140U, the “polymerase ribozyme fitness (log ratio)” value is at most -4.2.
